How the values were obtained:
FcRn-His (Example 11) = assay: SPR (BioRad ProteOn XPR 360), His-tagged target chip-bound
Human FcγR1A = assay: SPR, binding to human FcγR1A
Human FcRn (human) = Human FcRn (human) (UniProt P55899); assay: SPR, binding to human FcRn
[1] = target: recombinant human CD47 protein (human) (UniProt Q08722); assay: SPR, binding to human CD47
[2] = target: murine OX40 expressed on CHOK1 cells (CHOK1/mOX40) (murine) (UniProt P47741); assay: flow cytometry on CHOK1-mOX40 cells
Chain of murine OX40 expressed on CHOK1 cells (CHOK1/mOX40) (murine) (P47741 20-272): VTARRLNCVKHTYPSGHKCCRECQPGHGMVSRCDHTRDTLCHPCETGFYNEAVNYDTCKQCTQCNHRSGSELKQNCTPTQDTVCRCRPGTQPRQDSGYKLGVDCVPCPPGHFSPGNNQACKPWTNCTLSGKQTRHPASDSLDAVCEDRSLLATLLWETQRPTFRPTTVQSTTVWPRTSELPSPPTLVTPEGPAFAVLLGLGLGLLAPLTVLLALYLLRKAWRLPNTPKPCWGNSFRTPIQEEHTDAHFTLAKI

Chain of FcRn-His (Example 11) (Q61559 22-297, chain 1 of 2): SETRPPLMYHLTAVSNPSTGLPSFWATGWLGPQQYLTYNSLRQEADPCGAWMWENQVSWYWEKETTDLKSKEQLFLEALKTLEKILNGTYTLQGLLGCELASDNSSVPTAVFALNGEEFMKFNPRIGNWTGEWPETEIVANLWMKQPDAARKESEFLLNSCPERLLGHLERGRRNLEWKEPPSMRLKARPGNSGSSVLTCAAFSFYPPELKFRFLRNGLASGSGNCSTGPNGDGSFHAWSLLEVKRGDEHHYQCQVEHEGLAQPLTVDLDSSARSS
Chain of FcRn-His (Example 11) (P01887 21-119, chain 2 of 2, further chain): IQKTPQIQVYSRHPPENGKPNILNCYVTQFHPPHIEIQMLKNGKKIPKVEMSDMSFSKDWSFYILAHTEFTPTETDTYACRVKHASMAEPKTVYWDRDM
Chain of recombinant human CD47 protein (human) (Q08722 19-139 limits assumed): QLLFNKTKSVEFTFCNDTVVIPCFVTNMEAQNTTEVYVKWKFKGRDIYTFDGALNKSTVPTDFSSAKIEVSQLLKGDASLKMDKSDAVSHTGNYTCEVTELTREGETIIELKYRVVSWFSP
Chain of Human FcRn (human) (P55899 24-297 limits assumed, chain 1 of 2): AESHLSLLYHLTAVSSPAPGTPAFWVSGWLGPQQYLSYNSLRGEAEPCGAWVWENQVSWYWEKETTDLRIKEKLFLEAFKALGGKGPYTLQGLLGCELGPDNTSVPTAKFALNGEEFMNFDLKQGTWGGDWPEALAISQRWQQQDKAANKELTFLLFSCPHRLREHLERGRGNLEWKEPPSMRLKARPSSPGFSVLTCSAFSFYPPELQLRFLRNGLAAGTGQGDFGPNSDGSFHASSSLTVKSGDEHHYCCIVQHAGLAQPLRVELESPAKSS
Chain of Human FcRn (human) (chain, as listed by the source limits assumed, chain 2 of 2): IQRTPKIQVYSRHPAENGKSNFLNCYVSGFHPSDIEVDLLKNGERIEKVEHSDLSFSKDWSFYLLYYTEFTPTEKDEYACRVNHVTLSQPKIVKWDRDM
Chain of Human FcγR1A (chain, as listed by the source limits assumed): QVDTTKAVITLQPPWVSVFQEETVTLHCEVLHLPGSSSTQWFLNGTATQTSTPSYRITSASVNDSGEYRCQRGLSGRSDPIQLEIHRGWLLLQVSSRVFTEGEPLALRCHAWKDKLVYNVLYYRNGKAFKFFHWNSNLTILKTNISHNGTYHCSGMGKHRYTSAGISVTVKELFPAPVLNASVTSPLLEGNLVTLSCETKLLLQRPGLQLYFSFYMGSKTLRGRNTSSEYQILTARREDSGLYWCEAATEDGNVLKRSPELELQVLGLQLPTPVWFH

## IgG2A (control protein, Example 11) (antibody)
FcRn-His (Example 11)
  Kd: 8.08 nM
  koff: 0.0242 s⁻¹
  kon: 3e+06 M⁻¹ s⁻¹

## IgG1 (antibody)
Human FcγR1A
  koff: 0.00044 s⁻¹
  kon: 24900 M⁻¹ s⁻¹
Human FcRn (human)
  koff: 0.0046 s⁻¹
  kon: 945000 M⁻¹ s⁻¹

## CD172a-Fc Cntl (Fc fusion)
[1]
  Kd: 3.16 nM
  koff: 0.00239 s⁻¹
  kon: 756000 M⁻¹ s⁻¹

## murine TIM3-Fc-OX40L chimeric protein (from UniProt Q8VIM0 20-193; P43488 51-198) (Fc fusion)
[2]
  affinity (cell binding assay): 15.2 nM
